Experiment: yeast display, Sf9 membrane polyspecificity reagent, FACS + sequencing; frameworks hold sequencing errors
Procedure, shortened: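 In a synthetic yeast display library (Saccharomyces cerevisiae BJ5465), nanobody expression was induced with galactose for 36–48 hours. FACS gates were set low and high (top ~1%) using anti-HA fluorescence for expression and streptavidin fluorescence for binding of the Sf9 membrane reagent. Each polyreactivity label is drawn from the gate of origin.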

Sequence | polyreactivity (PSR sort gate)
QVHLVESGGGLVQAGGSLRLSCAASGITFYGNTMGWYRQTPGKERELVARISSGGSTNYAESVKGRFTISRVNAKNTVYLQMNSLKPEDTAVSYCAVKQYGFIWSGYGYDYWGQGSQVTVSS | high polyreactivity
QVHLVESGGGLVQAGGSLRLSCAASGITFYRFVLGGYRQAPGKEWELDAAISRTGGYTYYADSVKGRFTLSRDNAKNTVYLQMNSLKPVDTAVYYCAAATSTGIYDYWGQGTQVTGSS | high polyreactivity
QVHLVESGGGLVQAGGSLRLSCAASGITIYVYAMGWYRQAPGKEREFVAAINGRGGSPYYADSVKGRFTISRDNAKNTVYLQMNSLKPEDTAVFYCAAESLAIYYKYPPYDYWGQGSQVTVSS | high polyreactivity
QVHLVESGGGLVQAGGSLRLSCAASGLIFFKYAMGWYRQETGKESELVAANSSSGGRTSYADSVKGRFTISRDNAKNTVYLQMNSEKPEDTAVYYCNVKPSASYIRYNYRYYYWGQGTHVTVSS | high polyreactivity
QVHLVESGGGLVQAGGSLRLSCAASGLIFGKNAMGWYRQPPGKERELVAAISSGESTYADSVKWRFTISRDNAKNTVYLQMNSLKPEDTAVYYCNAEVLRESYDRHPTTDYYWGQGTQVTVSS | low polyreactivity
QVHLVESGGGLVQAGGSLRLSCAASGLIFVFYAMGWYRQAPGKERELVAAISRSGTSTYADSVKGRFTISRDNAKNTVYLQMNSLKPEDTAVYYCNAYRYYSPDGYWGQGTHVTVSS | low polyreactivity
QVHLVESGGGLVQAGGSLRLSCAASGLILPYYAMGWYRQARGKERELVAAISRTGGRTSYADSVKGRFTISRDNAKNTVYLQMNSLKPEDTAVYYCAAVGQSGGRRYDYWGQGTQVTVSS | high polyreactivity
QVHLVESGGGLVQAGGSLRLSCAASGLTFPSNAMGWYRQAPGKERELVAAISKRGGRTYYADSVKGRFTISRDNAKNSVYLQMNSLKPEDTAVYYFATPYAYPGTVQYAGYNYWGQGTQVTVSS | high polyreactivity
QVHLVESGGGLVQAGGSLRLSCAASGLTFYSNAMGWYRQAPGKERELVARISTGGSTYADSVKGRFTISRDNAKNTVYLQMNSLKPEDTAVYYCAKLPPRGIDDEYWGQGNQVTVSS | low polyreactivity
QVHLVESGGGLVQAGGSLRLSCAASGRIFAYYTMGWYRQAPGKERELVAAITSRGGSTYYADSVKGRFTISRDNAKKTVYLQMNSLKPEDTAVYYCADMRPSNVDYWGQGTQVTVSS | high polyreactivity
QVHLVESGGGLVQAGGSLRLSCAASGRIFKDNAMGWYRQAPGKERELVATIDSGGDTNYADSVKGRFTISRDNAKNTVYLQMNSLKPEDTAVYYCNTEGFLSAVYAFGYWGQGTQVTVSS | low polyreactivity
QVHLVESGGGLVQAGGSLRLSCAASGRIFNQYGMGWSRQAPGKERELVAAIRSGDSTNYADSVKGRFTISRDNAKNTVYLQMNSLKPEDTAVYYCARDRPGDYAGYDYWGQGTQVTVSS | low polyreactivity
QVHLVESGGGLVQAGGSLRLSCAASGRIFRFYAMGWYRQAPGKERELVADISRRGGSTYYADSVKGRFTISRDNAKNTVYLQMNSLKPEDTAVYYCNARWYRTGSTYHEDYWGQGTQVTVSS | high polyreactivity
QVHLVESGGGLVQAGGSLRLSCAASGRIFSRNAMGRYRQAPGKERELVAAISSDGNTNYADSVKGFTISRDNAKNTVYLQMNSLKPESTAVYYCAARFGYTAYGYWGQGTQVTVSS | low polyreactivity
QVHLVESGGGLVQAGGSLRLSCAASGRIFYYNAMGWYRQAPGKERELVAAISSAGSTYYADSVKGRFTLSRDNAKNTVYLQMNSLKPEDTAVYYCNAGKHERMDWGQGTQVTVSS | high polyreactivity
QVHLVESGGGLVQAGGSLRLSCAASGRIFYYYAMGWYRQAPGKEREFVAAIRISGGSTNYADSVKGRFTISRDNAKNTVYLQMNSLKPEDTAVYYCAARSKYSGIRRAYDYWGQGTQVTVSS | high polyreactivity
QVHLVESGGGLVQAGGSLRLSCAASGRISFNAMGWYRQAHAKERELVAAISRRGGSTYYADSVKGRFTISRDNAKNTVSLQMNSLKPEDTAVYYCAPDIIRPVTVDYWGQGTQVTVSS | high polyreactivity
